Here are results for 69 variants from the Human Domainome abundance scans (Beltran et al. 2025).

± gives the uncertainty stated by the source.

The chains are these.
B1: Ankyrin-2, residues 3571 to 3650; numbered along this chain, Q01484 (parent)
chain: ERLAYIADHLGFSWTELARELDFTEEQIHQIRIENPNSLQDQSHALLKYWLERDGKHATDTNLVECLTKINRMDIVHLME

Variants of B1 are the subject of this data set. The experiment in a line: abundance fitness (aPCA) (normalised: wild type 0, dead -1); higher = more abundant; growth selection in yeast, the domain comes from the species named. The conditions noted are these: Homo sapiens.
For the variant ERLAYIADHLGFSWTELARELDFTEEQLHQIRIENPNSLQDQSHALLKYWLERDGKHATDTNLVECLTKINRMDIVHLME, the abundance fitness is -0.05 ± 0.052.
As for ERLAYIADHLGFSWTELARELDFTEEQKHQIRIENPNSLQDQSHALLKYWLERDGKHATDTNLVECLTKINRMDIVHLME, the abundance fitness was -0.633 ± 0.32.
With ERLAYIADHLGFSWTELARELDFTEEQAHQIRIENPNSLQDQSHALLKYWLERDGKHATDTNLVECLTKINRMDIVHLME the figure was -0.215 ± 0.078; with ERLAYIADHLGFSWTELARELDFTEEQYHQIRIENPNSLQDQSHALLKYWLERDGKHATDTNLVECLTKINRMDIVHLME, -0.225 ± 0.12; with ERLAYIADHLGFSWTELARELDFTEEQSHQIRIENPNSLQDQSHALLKYWLERDGKHATDTNLVECLTKINRMDIVHLME, -0.203 ± 0.073.
With ERLAYIADHLGFSWTELARELDFTEEQDHQIRIENPNSLQDQSHALLKYWLERDGKHATDTNLVECLTKINRMDIVHLME the figure was -0.895 ± 0.17.
With ERLAYIADHLGFSWTELARELDFTEEQQHQIRIENPNSLQDQSHALLKYWLERDGKHATDTNLVECLTKINRMDIVHLME the figure was -0.179 ± 0.093.
As for ERLAYIADHLGFSWTELARELDFTEEQRHQIRIENPNSLQDQSHALLKYWLERDGKHATDTNLVECLTKINRMDIVHLME, the abundance fitness is -0.22 ± 0.056.
The result for ERLAYIADHLGFSWTELARELDFTEEQVHQIRIENPNSLQDQSHALLKYWLERDGKHATDTNLVECLTKINRMDIVHLME reads -0.056 ± 0.066.
Take ERLAYIADHLGFSWTELARELDFTEEQFHQIRIENPNSLQDQSHALLKYWLERDGKHATDTNLVECLTKINRMDIVHLME: the abundance fitness was -0.792 ± 0.18.
With ERLAYIADHLGFSWTELARELDFTEEQMHQIRIENPNSLQDQSHALLKYWLERDGKHATDTNLVECLTKINRMDIVHLME the figure was -0.064 ± 0.13; with ERLAYIADHLGFSWTELARELDFTEEQNHQIRIENPNSLQDQSHALLKYWLERDGKHATDTNLVECLTKINRMDIVHLME, -0.301 ± 0.14.
The result for ERLAYIADHLGFSWTELARELDFTEEQPHQIRIENPNSLQDQSHALLKYWLERDGKHATDTNLVECLTKINRMDIVHLME reads -0.833 ± 0.12; that for ERLAYIADHLGFSWTELARELDFTEEQTHQIRIENPNSLQDQSHALLKYWLERDGKHATDTNLVECLTKINRMDIVHLME, -0.1 ± 0.12; that for ERLAYIADHLGFSWTELARELDFTEEQHHQIRIENPNSLQDQSHALLKYWLERDGKHATDTNLVECLTKINRMDIVHLME, -0.668 ± 0.14.
The result for ERLAYIADHLGFSWTELARELDFTEEQGHQIRIENPNSLQDQSHALLKYWLERDGKHATDTNLVECLTKINRMDIVHLME reads -0.634 ± 0.064; that for ERLAYIADHLGFSWTELARELDFTEEQEHQIRIENPNSLQDQSHALLKYWLERDGKHATDTNLVECLTKINRMDIVHLME, -0.171 ± 0.067; that for ERLAYIADHLGFSWTELARELDFTEEQIKQIRIENPNSLQDQSHALLKYWLERDGKHATDTNLVECLTKINRMDIVHLME, -0.004 ± 0.18.
Turning to ERLAYIADHLGFSWTELARELDFTEEQIFQIRIENPNSLQDQSHALLKYWLERDGKHATDTNLVECLTKINRMDIVHLME, the abundance fitness is 0.062 ± 0.25.
With ERLAYIADHLGFSWTELARELDFTEEQIIQIRIENPNSLQDQSHALLKYWLERDGKHATDTNLVECLTKINRMDIVHLME the figure was -0.082 ± 0.079; with ERLAYIADHLGFSWTELARELDFTEEQIDQIRIENPNSLQDQSHALLKYWLERDGKHATDTNLVECLTKINRMDIVHLME, -0.079 ± 0.18; with ERLAYIADHLGFSWTELARELDFTEEQICQIRIENPNSLQDQSHALLKYWLERDGKHATDTNLVECLTKINRMDIVHLME, -0.07 ± 0.15.
As to ERLAYIADHLGFSWTELARELDFTEEQIGQIRIENPNSLQDQSHALLKYWLERDGKHATDTNLVECLTKINRMDIVHLME, the abundance fitness came to 0.027 ± 0.065.
ERLAYIADHLGFSWTELARELDFTEEQIEQIRIENPNSLQDQSHALLKYWLERDGKHATDTNLVECLTKINRMDIVHLME: the abundance fitness was -0.041 ± 0.17.
With ERLAYIADHLGFSWTELARELDFTEEQIAQIRIENPNSLQDQSHALLKYWLERDGKHATDTNLVECLTKINRMDIVHLME the figure was -0.013 ± 0.057; with ERLAYIADHLGFSWTELARELDFTYEQIHQIRIENPNSLQDQSHALLKYWLERDGKHATDTNLVECLTKINRMDIVHLME, -0.122 ± 0.12.
As for ERLAYIADHLGFSWTELARELDFTREQIHQIRIENPNSLQDQSHALLKYWLERDGKHATDTNLVECLTKINRMDIVHLME, the abundance fitness is -0.096 ± 0.062.
The result for ERLAYIADHLGFSWTELARELDFTQEQIHQIRIENPNSLQDQSHALLKYWLERDGKHATDTNLVECLTKINRMDIVHLME reads -0.01 ± 0.11; that for ERLAYIADHLGFSWTELARELDFTVEQIHQIRIENPNSLQDQSHALLKYWLERDGKHATDTNLVECLTKINRMDIVHLME, -0.064 ± 0.056; that for ERLAYIADHLGFSWTELARELDFTNEQIHQIRIENPNSLQDQSHALLKYWLERDGKHATDTNLVECLTKINRMDIVHLME, 0.108 ± 0.18.
Take ERLAYIADHLGFSWTELARELDFTKEQIHQIRIENPNSLQDQSHALLKYWLERDGKHATDTNLVECLTKINRMDIVHLME: the abundance fitness was 0.15 ± 0.24.
Regarding ERLAYIADHLGFSWTELARELDFTMEQIHQIRIENPNSLQDQSHALLKYWLERDGKHATDTNLVECLTKINRMDIVHLME, the abundance fitness was -0.113 ± 0.074.
ERLAYIADHLGFSWTELARELDFTSEQIHQIRIENPNSLQDQSHALLKYWLERDGKHATDTNLVECLTKINRMDIVHLME: the abundance fitness was -0.038 ± 0.055.
With ERLAYIADHLGFSWTELARELDFTTEQIHQIRIENPNSLQDQSHALLKYWLERDGKHATDTNLVECLTKINRMDIVHLME, the abundance fitness is -0.065 ± 0.077.
The result for ERLAYIADHLGFSWTELARELDFTPEQIHQIRIENPNSLQDQSHALLKYWLERDGKHATDTNLVECLTKINRMDIVHLME reads 0.021 ± 0.07; that for ERLAYIADHLGFSWTELARELDFTLEQIHQIRIENPNSLQDQSHALLKYWLERDGKHATDTNLVECLTKINRMDIVHLME, -0.062 ± 0.057.
For ERLAYIADHLGFSWTELARELDFTEENIHQIRIENPNSLQDQSHALLKYWLERDGKHATDTNLVECLTKINRMDIVHLME, the abundance fitness turned out to be 0.08 ± 0.41.
The result for ERLAYIADHLGFSWTELARELDFTEEIIHQIRIENPNSLQDQSHALLKYWLERDGKHATDTNLVECLTKINRMDIVHLME reads -0.039 ± 0.13.
On to ERLAYIADHLGFSWTELARELDFTEEYIHQIRIENPNSLQDQSHALLKYWLERDGKHATDTNLVECLTKINRMDIVHLME, for which the abundance fitness is -0.236 ± 0.13.
The result for ERLAYIADHLGFSWTELARELDFTEELIHQIRIENPNSLQDQSHALLKYWLERDGKHATDTNLVECLTKINRMDIVHLME reads -0.039 ± 0.066.
The result for ERLAYIADHLGFSWTELARELDFTEEPIHQIRIENPNSLQDQSHALLKYWLERDGKHATDTNLVECLTKINRMDIVHLME reads -0.675 ± 0.097; that for ERLAYIADHLGFSWTELARELDFTEEHIHQIRIENPNSLQDQSHALLKYWLERDGKHATDTNLVECLTKINRMDIVHLME, 0.101 ± 0.14.
With ERLAYIADHLGFSWTELARELDFTEEVIHQIRIENPNSLQDQSHALLKYWLERDGKHATDTNLVECLTKINRMDIVHLME the figure was -0.042 ± 0.051; with ERLAYIADHLGFSWTELARELDFTEETIHQIRIENPNSLQDQSHALLKYWLERDGKHATDTNLVECLTKINRMDIVHLME, 0.1 ± 0.12.
Turning to ERLAYIADHLGFSWTELARELDFTEEMIHQIRIENPNSLQDQSHALLKYWLERDGKHATDTNLVECLTKINRMDIVHLME, the abundance fitness was -0.006 ± 0.1.
For ERLAYIADHLGFSWTELARELDFTEERIHQIRIENPNSLQDQSHALLKYWLERDGKHATDTNLVECLTKINRMDIVHLME, the abundance fitness was -0.09 ± 0.071.
For the variant ERLAYIADHLGFSWTELARELDFTEEGIHQIRIENPNSLQDQSHALLKYWLERDGKHATDTNLVECLTKINRMDIVHLME, the abundance fitness was -0.144 ± 0.06.
The result for ERLAYIADHLGFSWTELARELDFTEEEIHQIRIENPNSLQDQSHALLKYWLERDGKHATDTNLVECLTKINRMDIVHLME reads 0.007 ± 0.071; that for ERLAYIADHLGFSWTELARELDFTEEKIHQIRIENPNSLQDQSHALLKYWLERDGKHATDTNLVECLTKINRMDIVHLME, 0.051 ± 0.14.
The result for ERLAYIADHLGFSWTELARELDFTEEAIHQIRIENPNSLQDQSHALLKYWLERDGKHATDTNLVECLTKINRMDIVHLME reads -0.116 ± 0.081; that for ERLAYIADHLGFSWTELARELDFTEESIHQIRIENPNSLQDQSHALLKYWLERDGKHATDTNLVECLTKINRMDIVHLME, 0.006 ± 0.071.
With ERLAYIADHLGFSWTELARELDFTEYQIHQIRIENPNSLQDQSHALLKYWLERDGKHATDTNLVECLTKINRMDIVHLME the figure was -0.118 ± 0.14; with ERLAYIADHLGFSWTELARELDFTEDQIHQIRIENPNSLQDQSHALLKYWLERDGKHATDTNLVECLTKINRMDIVHLME, -0.053 ± 0.12; with ERLAYIADHLGFSWTELARELDFTEMQIHQIRIENPNSLQDQSHALLKYWLERDGKHATDTNLVECLTKINRMDIVHLME, -0.041 ± 0.098.
Take ERLAYIADHLGFSWTELARELDFTEIQIHQIRIENPNSLQDQSHALLKYWLERDGKHATDTNLVECLTKINRMDIVHLME: the abundance fitness was -0.045 ± 0.14.
For ERLAYIADHLGFSWTELARELDFTEAQIHQIRIENPNSLQDQSHALLKYWLERDGKHATDTNLVECLTKINRMDIVHLME, the abundance fitness is -0.087 ± 0.068.
With ERLAYIADHLGFSWTELARELDFTETQIHQIRIENPNSLQDQSHALLKYWLERDGKHATDTNLVECLTKINRMDIVHLME the figure was -0.027 ± 0.066; with ERLAYIADHLGFSWTELARELDFTEPQIHQIRIENPNSLQDQSHALLKYWLERDGKHATDTNLVECLTKINRMDIVHLME, -0.086 ± 0.064.
With ERLAYIADHLGFSWTELARELDFTEKQIHQIRIENPNSLQDQSHALLKYWLERDGKHATDTNLVECLTKINRMDIVHLME the figure was 0.035 ± 0.1.
With ERLAYIADHLGFSWTELARELDFTENQIHQIRIENPNSLQDQSHALLKYWLERDGKHATDTNLVECLTKINRMDIVHLME the figure was -0.033 ± 0.11.
Consider ERLAYIADHLGFSWTELARELDFTECQIHQIRIENPNSLQDQSHALLKYWLERDGKHATDTNLVECLTKINRMDIVHLME, for which the abundance fitness is -0.209 ± 0.092.
The result for ERLAYIADHLGFSWTELARELDFTERQIHQIRIENPNSLQDQSHALLKYWLERDGKHATDTNLVECLTKINRMDIVHLME reads -0.068 ± 0.044; that for ERLAYIADHLGFSWTELARELDFTEGQIHQIRIENPNSLQDQSHALLKYWLERDGKHATDTNLVECLTKINRMDIVHLME, -0.059 ± 0.046.
Regarding ERLAYIADHLGFSWTELARELDFTEQQIHQIRIENPNSLQDQSHALLKYWLERDGKHATDTNLVECLTKINRMDIVHLME, the abundance fitness was -0.129 ± 0.17.
As to ERLAYIADHLGFSWTELARELDFTEHQIHQIRIENPNSLQDQSHALLKYWLERDGKHATDTNLVECLTKINRMDIVHLME, the abundance fitness turned out to be 0.039 ± 0.13.
On to ERLAYIADHLGFSWTELARELDFTEFQIHQIRIENPNSLQDQSHALLKYWLERDGKHATDTNLVECLTKINRMDIVHLME, for which the abundance fitness is -0.282 ± 0.17.
The result for ERLAYIADHLGFSWTELARELDFTESQIHQIRIENPNSLQDQSHALLKYWLERDGKHATDTNLVECLTKINRMDIVHLME reads -0.091 ± 0.057; that for ERLAYIADHLGFSWTELARELDFTELQIHQIRIENPNSLQDQSHALLKYWLERDGKHATDTNLVECLTKINRMDIVHLME, -0.057 ± 0.059.
ERLAYIADHLGFSWTELARELDFTEWQIHQIRIENPNSLQDQSHALLKYWLERDGKHATDTNLVECLTKINRMDIVHLME: the abundance fitness is -0.105 ± 0.069.
